Measured values from patent publication US20100011462A1, “FLAVIN MONOOXYGENASES AND TRANSCRIPTION FACTORS INVOLVED IN GLUCOSINOLATE BIOSYNTHESIS” (University of Copenhagen, priority 2006, published 2010).

T1: At1g12140 (Arabidopsis thaliana, UniProt A8MRX0)
T1 construct: made in house; host or cells: E. coli
T1 sequence (A8MRX0 1-459): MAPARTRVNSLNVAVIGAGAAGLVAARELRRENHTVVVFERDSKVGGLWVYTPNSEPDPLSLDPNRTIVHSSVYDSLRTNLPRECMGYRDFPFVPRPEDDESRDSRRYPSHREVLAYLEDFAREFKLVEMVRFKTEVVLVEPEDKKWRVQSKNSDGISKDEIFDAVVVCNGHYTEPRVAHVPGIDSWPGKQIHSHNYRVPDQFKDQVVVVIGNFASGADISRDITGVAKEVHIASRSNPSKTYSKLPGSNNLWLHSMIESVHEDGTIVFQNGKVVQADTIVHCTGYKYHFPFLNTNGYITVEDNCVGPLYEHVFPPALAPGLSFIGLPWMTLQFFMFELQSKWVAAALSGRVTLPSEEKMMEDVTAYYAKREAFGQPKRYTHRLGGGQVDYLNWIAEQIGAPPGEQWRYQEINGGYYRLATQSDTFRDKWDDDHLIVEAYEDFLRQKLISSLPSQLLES


Assays:
At1g12140 = biological target: T1, At1g12140; experiment: Heterologous expression of At1g12140 in E. coli, desulfo-glucosinolate substrate mix; format: biochemical; settings: desulfo-glucosinolates from Arabidopsis Col-0 seeds as substrate mix
From the text: (§1) FIG. 15—Heterologous expression of At1g12140 in E. coli using desulfo-glucosinolates from glucosinolates from Arabidopsis Col-0 seeds as substrate mix.

[1] = Activity of FMOs of the invention in E. coli or in seeds using a variety of substrates; format: biochemical, Arabidopsis thaliana; settings: for S-oxygenation activity: desulfo and intact glucosinolates; for substrate specificity: methylthio glucosinolates in Arabidopsis
From the text: FIG. 11—Heterologous expression of At1g62560 in E. coli using 4MTB as substrate, with an empty vector as control.
FIG. 13—Heterologous expression of At1g62540 in E. coli using 4MTB as substrate, with an empty vector as control.
as §1
FIG. 17—Heterologous expression of At1g62570 in E. coli using desulfo-glucosinolates from glucosinolates from Arabidopsis Col-0 seeds as substrate mix, with an empty vector as control.
FIGS. 11-18 show the activity of At1g62560, At1g65860, At1g62540, At1g12140 and At1g62570 in E. coli or in seeds using a variety of substrates.

[2] = tested on: Arabidopsis thaliana Col-0; experiment: 4MTB and 4MSB levels in At1g65860 and At1g62560 overexpression lines; format: in vivo; settings: expressed constitutively
Procedure: FIG. 5—4-methylthiobutyl glucosinolate levels in rosette leaves from 24 day old wild type columbia and transgenic At1g65860 and At1g62560 overexpression lines. Quantities are given in nmol/mg fresh weight ±one standard deviation and are the mean of extractions from four individual plants. Two independent lines were analysed for each construct. The lines H and AT for 35S overexpression of At1g65860 and line 9 and 11 for 35S overexpression of At1g62560.
FIG. 12—4-6 fold increase in 4MSB levels in seeds in overexpressors of At1g62560 and At1g65860.
In another separate experiment a mix of heterozygous and homozygous 35S:At1g62560 and 35S:At1g65860 as well as Arabidopsis thaliana, ecotype Columbia, were used.
Three-four leaves (20-80 mg) were harvested from each plant and the material freeze-dried O/N. After adding one ball bearing to each tube, the tissue was homogenized by shaking at a frequency of 30 s^−1 for one min on a Retsch Mixer Mill 303 (Retsch, Haan, Germany). 250 μl of 85% methanol was added to each tube and the entire box vortexed for 30 s. For glucosinolate extraction from seeds (10-20 mg) 250 μl of 85% methanol was added before homogenization. The samples were mixed for two minutes by vortexing. […]

Row | S-oxygenation activity (At1g12140) | Molecule | S-oxygenation activity [1] | substrate specificity [1] | 4-methylthiobutyl glucosinolate levels [2]
1 | high activity | CSCCCCCCCCC(=NOS(=O)(=O)O)S[C@@H]1O[C@H](CO)[C@@H](O)[C@H](O)[C@H]1O [8MTO, 8-methylthiooctyl glucosinolate] | – | – | –
2 | – | At1g65860: flavin-containing monooxygenase (FMO) from A. thaliana, SEQ ID NO 4; also its overexpression in planta (protein, listed as Arabidopsis thaliana) MAPTQNTICSKHVAVIGAGAAGLVTARELRREGHTVVVFDREKQVGGLWNYSSKADSDPLSLDTTRTIVHTSIYESLRTNLPRECMGFTDFPFVPRIHDISRDSRRYPSHREVLAYLQDFAREFKIEEMVRFETEVVCVEPVNGKWSVRSKNSVGFAAHEIFDAVVVCSGHFTEPNVAHIPGIKSWPGKQIHSHNYRVPGPFNNEVVVVIGNYASGADISRDIAKVAKEVHIASRASESDTYQKLPVPQNNLWVHSEIDFAHQDGSILFKNGKVVYADTIVHCTGYKYYFPFLETNGYININENRVEPLYKHVFLPALAPSLSFIGLPGMAIQFVMFEIQSKWVAAVLSGRVILPSQDKMMEDIIEWYATLDVLGIPKRHTHKLGKISCEYLNWIAEECHCSPVENWRIQEVERGFQRMVSHPEIYRDEWDDDDLMEEAYKDFARKKLISSHPSYFLES | S-oxygenation activity | broad specificity towards all methylthio (MT) glucosinolates | reduced
3 | – | At1g62560: flavin-containing monooxygenase (FMO) from A. thaliana, SEQ ID NO 2; also its overexpression in planta (protein, listed as Arabidopsis thaliana) MAPAQNQITSKHVAVIGAGPAGLITSRELRREGHSVVVFEREKQVGGLWVYTPKSDSDPLSLDPTRSKVHSSIYESLRTNVPRESMGVRDFPFLPRFDDESRDARRYPNHREVLAYIQDFAREFKIEEMIRFETEVVRVEPVDNGNWRVQSKNSGGFLEDEIYDAVVVCNGHYTEPNIAHIPGIKSWPGKQIHSHNYRVPDPFENEVVVVIGNFASGADISRDIAKVAKEVHIASRAREPHTYEKISVPQNNLWMHSEIDTTHEDGSIVFKNGKVIFADSIVYCTGYKYNFPFLETNGYLRIDEKRVEPLYKHVFPPALAPGLAFVGLPAMGIVFVMFEIQSKWVAAVLSGRVTLPSTDKMMEDINAWYASLDALGIPKRHTHTIGRIQSEYLNWVAKESGCELVERWRGQEVDGGYLRLVAHPETYRDEWDDDELIEEAYNDFSRKKLISVDPSYYLENGR | S-oxygenation activity | broad specificity towards all methylthio (MT) glucosinolates | reduced
